Source: patent US20100240040A1, “METHOD FOR SCREENING FOR SELECTIVE MODULATOR OF THE NF-KB PATHWAY ACTIVATION” (INSTITUT PASTEUR, priority 2007, published 2010)

Molecular target: T1, Biot-CC2-LZ (Mus musculus, UniProt O88522)
T1 construct: made in house; host or cells: chemical synthesis
Test: HTRF assay, complex with Biot-CC2-LZ (negative and positive controls)
Type: binding
Settings: 50 nM His-tagged protein with 50 nM Biot-CC2-LZ, Strept-Eu 2 nM, AntiHis-XL 7 nM
From the text: The Homogeneous Time Resolved Fluorescence (HTRF®) assay reagents anti-(His)6 monoclonal antibody labeled with XL665 (MABHis6-XL) and streptavidin-Europium cryptate (streptavidin-EuK) were purchased from CIS-Bio. The His-CC2-LZ peptide (SEQ ID NO: 30 and 31) was purified as described in Agou et al., 2004a and the biotin tagged CC2-LZ peptide (SEQ ID NO: 28 and 29) was chemically synthezised as described in Wyler et al., 2007.
In HTRF experiments, the pure His-CC2-LZ protein was labeled by anti-His-XL665 mAb and biot-CC2-LZ was labeled by streptavidin-EuK. Dimerization of His-CC2-LZ and Biot-CC2-LZ leads the donor (Steptavidin-EuK) and the acceptor (anti-His-XL665) into close proximity. Upon excitation of Europium cryptate at 320 nm, FRET occurs between these two fluorophores, and XL665 re-emits a specific long-lived fluorescence at 665 nm.
All experiments were carried out in a black microplate Greiner (200 μl) at 25° C. The excitation wavelength was 320 nm and the fluorescence emissions were measured at 620 nm and at 665 nm to normalize the specific signal. Fluorescence emission was recorded at both wavelengths after an 50 μs delay, which reduces background noise introduced by the media and the free acceptor molecules. The FRET signal is calculated using the following equation:
ΔF=[(R−Rneg)/Rneg]*100 (1) […]

FRET (ΔF %): ≦0%
B1: His-CC2-LZ: six his-tagged CC2-LZ peptide, recombinant, SEQ ID NO: 30 (humanised 31) (protein)
chain: MGSHHHHHHSSGLVPRGSHMASLEDLRQQLQQAEEALVAKQELIDKLKEEAEQHKIVMETVPVLKAQADIYKADFQAERHAREKLVEKKEYLQEQLEQLQREFNKL
